For assay [1], the target named is T1, cynomolgus monkey C2 (cynomolgus monkey, UniProt G8F3W0 21-752).
T1 sequence: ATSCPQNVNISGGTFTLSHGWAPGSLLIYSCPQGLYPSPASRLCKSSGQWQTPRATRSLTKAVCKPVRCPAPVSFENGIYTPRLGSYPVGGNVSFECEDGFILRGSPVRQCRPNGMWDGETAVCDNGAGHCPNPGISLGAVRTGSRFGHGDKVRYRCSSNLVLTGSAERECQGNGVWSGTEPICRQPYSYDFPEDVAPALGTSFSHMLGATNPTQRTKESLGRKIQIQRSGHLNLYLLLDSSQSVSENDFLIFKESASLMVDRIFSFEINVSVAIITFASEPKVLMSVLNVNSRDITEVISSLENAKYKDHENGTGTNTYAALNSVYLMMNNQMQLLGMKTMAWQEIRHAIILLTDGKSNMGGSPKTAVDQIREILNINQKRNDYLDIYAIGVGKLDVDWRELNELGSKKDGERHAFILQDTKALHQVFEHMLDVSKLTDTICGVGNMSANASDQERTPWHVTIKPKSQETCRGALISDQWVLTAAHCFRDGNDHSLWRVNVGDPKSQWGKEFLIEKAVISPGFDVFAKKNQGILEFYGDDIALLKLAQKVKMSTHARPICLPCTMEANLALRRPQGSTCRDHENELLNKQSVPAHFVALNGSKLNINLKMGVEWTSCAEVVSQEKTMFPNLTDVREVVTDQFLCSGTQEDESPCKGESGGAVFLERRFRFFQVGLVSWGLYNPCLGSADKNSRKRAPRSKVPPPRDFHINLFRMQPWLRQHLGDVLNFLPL
The experiment in a line: cell-based or functional assay.

Assay [2] addresses T2, human complement C2 (human, UniProt P06681 21-752).
T2 sequence: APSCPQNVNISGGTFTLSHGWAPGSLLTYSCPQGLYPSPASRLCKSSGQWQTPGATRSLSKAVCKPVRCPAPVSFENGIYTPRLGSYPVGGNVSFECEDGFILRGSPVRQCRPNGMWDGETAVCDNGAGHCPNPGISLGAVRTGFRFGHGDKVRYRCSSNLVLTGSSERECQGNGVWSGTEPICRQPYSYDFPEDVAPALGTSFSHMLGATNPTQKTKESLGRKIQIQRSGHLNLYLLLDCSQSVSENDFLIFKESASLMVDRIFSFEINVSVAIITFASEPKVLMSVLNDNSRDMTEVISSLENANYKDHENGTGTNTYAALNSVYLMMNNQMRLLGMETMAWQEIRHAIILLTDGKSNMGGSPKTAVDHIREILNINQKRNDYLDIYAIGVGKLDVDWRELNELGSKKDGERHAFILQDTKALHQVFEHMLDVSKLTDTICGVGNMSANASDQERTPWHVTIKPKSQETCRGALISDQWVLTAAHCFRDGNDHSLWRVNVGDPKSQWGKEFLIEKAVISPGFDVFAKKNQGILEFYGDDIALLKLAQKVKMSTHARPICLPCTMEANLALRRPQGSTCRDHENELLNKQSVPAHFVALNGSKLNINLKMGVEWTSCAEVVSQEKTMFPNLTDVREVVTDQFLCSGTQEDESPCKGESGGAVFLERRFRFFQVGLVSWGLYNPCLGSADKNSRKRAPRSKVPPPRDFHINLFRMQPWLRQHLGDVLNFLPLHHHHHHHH
The experiment in a line: cell-based or functional assay.

For assay [3], the target named is T1, cynomolgus monkey C2. Briefly: cell-based or functional assay. This is another data set of the same source.
Assay [4] has as its target T2, human complement C2. The experiment in a line: SPR, mAb captured, C2 analyte, MHAs buffer, pH 5.8, steady state.
Procedure: (§1) Surface plasmon resonance (SPR, Biacore) was used for all binding affinity analyses. In brief, goat anti-human IgG was directly immobilised onto the carboxymethyl dextran surface of CM5 sensorchips to approximately 12,000 RU using standard NHS/EDC chemistry at pH 5. The immobilised antibody surface was pre-conditioned with ten injections of polyclonal human IgG (Privigen 60 s) prepared at 1 μg/mL. Ligands (anti-C2 mAbs) were captured at the beginning of each cycle as described below. An adjacent spot or flow cell in which only Polyclonal IgG was capture was used as a reference surface. The goat anti-human IgG Fc antibody surface was regenerate in 100 mM H3PO4, injected for 45 seconds at the end of each cycle. Experiments were performed at 37° C. and the flow rate of each experiment was kept constant at 30 μL/min.
This buffer contains ammonium sulfate instead of sodium chloride.
In assay [5] the target is T2, human complement C2. The experiment in a line: SPR, mAb captured, C2 analyte, HBS-EP, pH 7.3.
Procedure: as §1
(§2) The pH dependent anti-C2 antibodies and their germlined versions were tested for their affinity to C2 at pH 7.3 (neutral pH) and pH 6.0 (early endosome pH) using the SPR methods described above in HBS-EP buffer.
Assay [6] has as its target T2, human complement C2. Briefly: cell-based or functional assay. The source holds these as a separate data set.
For assay [7], the target named is T3, mouse C2 (mouse, UniProt P21180 19-760, limits assumed).
T3 sequence (looked up): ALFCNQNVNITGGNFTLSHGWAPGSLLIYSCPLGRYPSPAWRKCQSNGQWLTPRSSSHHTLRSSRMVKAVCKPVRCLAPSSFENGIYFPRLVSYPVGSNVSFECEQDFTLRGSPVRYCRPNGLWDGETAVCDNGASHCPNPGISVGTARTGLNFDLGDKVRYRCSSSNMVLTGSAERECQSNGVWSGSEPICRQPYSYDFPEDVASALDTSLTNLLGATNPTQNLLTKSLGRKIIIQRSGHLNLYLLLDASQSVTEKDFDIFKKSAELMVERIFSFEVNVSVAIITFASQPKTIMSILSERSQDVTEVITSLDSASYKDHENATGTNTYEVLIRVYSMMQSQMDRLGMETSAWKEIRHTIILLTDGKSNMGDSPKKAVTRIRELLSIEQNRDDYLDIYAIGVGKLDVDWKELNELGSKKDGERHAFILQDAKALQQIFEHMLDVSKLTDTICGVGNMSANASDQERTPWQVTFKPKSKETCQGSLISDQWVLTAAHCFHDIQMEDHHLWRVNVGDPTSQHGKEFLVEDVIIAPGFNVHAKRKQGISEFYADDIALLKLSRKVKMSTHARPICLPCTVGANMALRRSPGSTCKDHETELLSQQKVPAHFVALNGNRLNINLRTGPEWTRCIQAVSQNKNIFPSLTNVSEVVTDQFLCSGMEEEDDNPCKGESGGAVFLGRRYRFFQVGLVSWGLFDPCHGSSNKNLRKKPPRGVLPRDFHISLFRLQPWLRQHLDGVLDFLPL
The experiment in a line: SPR, mAb captured, mouse C2 analyte, pH 7.3.
Procedure: as §1
(§3) In addition to human C2, the pH dependent anti-C2 antibodies were also tested for their ability to bind to C2 from other mammalian species using the SPR methods described above in order to identify suitable surrogate species for in vivo testing. The antibodies were tested for binding at neutral pH against C2 from cynomolgus monkeys, mice, dogs, rabbits, rats, pigs, and sheep.

For assay [8], the target named is T2, human complement C2. The experiment in a line: SPR, mAb captured, C2 analyte, MHAs buffer, pH 7.3.
In assay [9] the target is T1, cynomolgus monkey C2. The experiment in a line: SPR, mAb captured, cyno C2 analyte, pH 7.3.
Procedure: as §1, §3
Assay [10] addresses T1, cynomolgus monkey C2. Briefly: SPR, mAb captured, cyno C2 analyte, pH 6.0.
The target of assay [11] is T2, human complement C2. Briefly: SPR, mAb captured, C2 analyte, HBS-EP, pH 6.0.
Procedure: as §1, §2

B1: RF16-214 (antibody, V domains shown)
VH: EVQLLESGGGLVQPGGSLRLSCAASGFTFSWYQMMWVRQAPGKGLEWVSRIYPSGGGTAYADSVKGRFTISRDNSKNTLYLQMNSLRAEDTAVYYCARDAGYGDNWGQGTLVTVSS
VL: QSALTQPPSVSVSPGQTASITCSGDKLGEKYASWYQQKAGQSPVMVIYQDRKRPSGIPERFSGSNSGNTATLTISGTQAMDEADYYCQAWDTRAVVFGGGTKLTVLG
With B1, in assay [1], the “IC50, inhibition of cynomolgus classical complement pathway (Wieslab assay)” value came to 134 nM. The “IC50, inhibition of cynomolgus lectin complement pathway (Wieslab assay)” value in assay [1] worked out at 362 nM. In [2], the “IC50, inhibition of human classical pathway (hemolysis assay)” value came out at 241 nM. Moreover, the “IC50, inhibition of cyno classical pathway (hemolysis assay)” value in assay [3] stood at 630 nM. The Kd in assay [4] was 4670 nM; in assay [5], 31 nM; in [7], 885 nM; in assay [8] it was 233 nM; in assay [9], 46.8 nM; in [10] it was 137 nM. In [11], this molecule showed a dissociation constant Kd of 148 nM. Also, in [6], the “IC50, inhibition of human classical complement pathway (Wieslab assay)” value was 18.6 nM. For the same molecule, the “IC50, inhibition of human lectin complement pathway (Wieslab assay)” value in [6] was determined as 7.69 nM.

B2: RF16-226 (antibody)
heavy: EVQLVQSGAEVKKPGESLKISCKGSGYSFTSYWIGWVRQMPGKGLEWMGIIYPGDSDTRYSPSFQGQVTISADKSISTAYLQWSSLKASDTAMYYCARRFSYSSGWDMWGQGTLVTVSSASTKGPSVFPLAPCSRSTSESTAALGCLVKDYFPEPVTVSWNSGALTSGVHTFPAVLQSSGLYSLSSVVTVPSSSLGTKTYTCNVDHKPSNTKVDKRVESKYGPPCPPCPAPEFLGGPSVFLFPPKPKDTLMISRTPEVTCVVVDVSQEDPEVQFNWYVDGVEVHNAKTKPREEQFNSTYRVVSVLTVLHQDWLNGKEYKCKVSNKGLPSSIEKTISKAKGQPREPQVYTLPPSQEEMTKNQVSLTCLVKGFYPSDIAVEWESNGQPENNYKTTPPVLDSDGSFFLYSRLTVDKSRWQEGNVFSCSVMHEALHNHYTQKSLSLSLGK
light: SYELTQPPSVSVSPGQTARITCSGDALTSKYVAWYQQKSGLAPLLVIYEDTRRPSGIPAKFSGSSSGSVATLTISGAHGDDEADYYCYSTDASGHQRVFGGGTKLTVLSQPKAAPSVTLFPPSSEELQANKATLVCLISDFYPGAVTVAWKADGSPVKAGVETTKPSKQSNNKYAASSYLSLTPEQWKSHRSYSCQVTHEGSTVEKTVAPTECS
Turning to B2, the “IC50, inhibition of cynomolgus classical complement pathway (Wieslab assay)” value in assay [1] was found to be 18.8 nM. For the same molecule, the “IC50, inhibition of cynomolgus lectin complement pathway (Wieslab assay)” value in assay [1] came out at 140 nM. In assay [2], the “IC50, inhibition of human classical pathway (hemolysis assay)” value is 284 nM. Further, the “IC50, inhibition of cyno classical pathway (hemolysis assay), mean of three experiments” value in [3] came to 124 nM. The dissociation constant Kd in assay [4] was found to be 5510 nM; in assay [5], 11.6 nM; in assay [7], 160 nM; in assay [8], 44 nM; in assay [9], 5.1 nM; in assay [10], 141 nM. For the same molecule, in [11], binding was characterised by a dissociation constant (Kd) of 114 nM. Also, the “IC50, inhibition of human classical complement pathway (Wieslab assay)” value in assay [6] was found to be 12.5 nM. For the same molecule, the “IC50, inhibition of human lectin complement pathway (Wieslab assay)” value in assay [6] was found to be 5.6 nM.

(Values after patent publication US20220332804A1 (CSL INNOVATION, published 2022).)
